From patent US20140120095A1 (Boehringer Ingelheim, published 2014)
Each block holds one binder with its values, some of them ahead of it.

How the values were obtained:
recombinant human DLL4 [1] = molecular target: T1, recombinant human DLL4 (human, UniProt Q9NR61 25-522); assay: hDLL4 ELISA screen, periplasmic extract
T1 construct: also called rhDLL4; hDLL4

recombinant human DLL4 [2] = molecular target: T1, recombinant human DLL4; assay: Biacore off-rate, periplasmic extract; heterogeneous fit, fast off-rate
recombinant human DLL4 [3] = molecular target: T1, recombinant human DLL4; assay: Biacore off-rate, periplasmic extract; heterogeneous fit, slow off-rate
recombinant human DLL4 [4] = molecular target: T1, recombinant human DLL4; assay: binding ELISA, coated rhDLL4
Method: In order to determine cross-reactivity to mouse DII4 a binding ELISA is performed. […] Wells are blocked with a casein solution (1% in PBS). VHHs are applied as dilution series and binding is detected using a mouse anti-myc (Roche) and an anti-mouse-AP conjugate (Sigma, St Louis, Mo., USA) (FIG. 7 A-H). As reference, binding to human DII4 is measured.

recombinant human DLL4 [5] = molecular target: T1, recombinant human DLL4; assay: AlphaScreen biot-hDLL4/hNotch1-Fc, periplasmic extract
[6] = molecular target: T2, recombinant human VEGF165 (human, UniProt P15692-4 27-191, biotinylated in the competition assays); assay: ProteOn off-rate assay, periplasmic extract on coated hVEGF165
T2 construct: Bought protein; also called hVEGF165; rhVEGF165
Method: One additional variant is constructed in which the potential oxidation site at position M30 (CDR1 region, see FIG. 38 indicated as bold italic residue) is removed by introduction of a M30I mutation. […] Off-rates are calculated and compared to the off-rates of the parental VEGFBII5B05.

[7] = molecular target: T2, recombinant human VEGF165; assay: SPR Biacore, hVEGF165
Method: (§1) Samples are injected for 2 min and allowed to dissociate up to 20 min at a flow rate of 45 μl/min. In between sample injections, the chip surface is regenerated with 100 mM HCl. HBS-EP+(Hepes buffer pH7.4+EDTA) is used as running buffer. Binding curves are fitted using a Two State Reaction model by Biacore T100 Evaluation Software v2.0.1.

[8] = molecular target: T3, recombinant human VEGF165 (human, UniProt P15692-4 27-191, biotinylated in the competition assays); assay: competition ELISA, biotinylated VEGF165 to coated VEGFR1-Fc
T3 construct: also called hVEGF165; rhVEGF165

[9] = molecular target: T3, recombinant human VEGF165; assay: SPR (Biacore), immobilised VEGF165, Two State Reaction model
Method: as §1
^{(a)}Heterogeneous binding curve resulting in no 1:1 fit, curves are fitted using a Two State Reaction model by Biacore T100 Evaluation Software v2.0.1

[10] = molecular target: T3, recombinant human VEGF165; assay: competition AlphaScreen, bio-VEGF165 and VEGFR2-Fc
Method: (§2) Finally, streptavidin donor beads (20 μg/ml) are added and after 1 hour of incubation in the dark, fluorescence is measured on the Envision microplate reader.

[11] = molecular target: T4, recombinant human VEGF121 (R&D Systems) (human, UniProt P15692-9 27-147); assay: binding ELISA, coated recombinant human VEGF121
T4 construct: also called rhVEGF121
T4 sequence (looked up): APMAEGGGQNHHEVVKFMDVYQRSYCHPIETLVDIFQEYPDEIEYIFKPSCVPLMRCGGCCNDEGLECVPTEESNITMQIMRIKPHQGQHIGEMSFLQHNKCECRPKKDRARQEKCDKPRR
Method: Binding to recombinant human VEGF121 is assessed via a solid phase binding ELISA. […] Wells are blocked with a casein solution (1% in PBS).

[12] = molecular target: T3, recombinant human VEGF165; assay: competition AlphaScreen, bio-VEGF165 and VEGFR1-Fc
Method: as §2

[13] = molecular target: T3, recombinant human VEGF165; assay: binding ELISA, coated rhVEGF165
[14] = molecular target: T5, recombinant mouse VEGF164 (R&D Systems) (mouse, UniProt Q00731-2 27-190); assay: binding ELISA, coated rmVEGF164
T5 construct: also called rmVEGF164; mVEGF164
T5 sequence (looked up): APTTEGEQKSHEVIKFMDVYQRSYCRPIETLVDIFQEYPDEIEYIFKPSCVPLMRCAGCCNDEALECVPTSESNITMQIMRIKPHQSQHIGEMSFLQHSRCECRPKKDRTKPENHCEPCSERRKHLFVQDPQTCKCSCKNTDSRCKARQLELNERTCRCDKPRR
Method: Cross-reactivity to mouse VEGF164 is determined using a binding ELISA. […] Wells are blocked with a casein solution (1% in PBS). […] A mouse VEGF164 reactive mAb is included as positive control.

[15] = molecular target: T3, recombinant human VEGF165; assay: competition ELISA, biotinylated VEGF165 to coated VEGFR2-Fc
[16] = molecular target: T3, recombinant human VEGF165; assay: SPR (Biacore), periplasmic extract over immobilised VEGF165, two phase decay fit
Method: Dissociation rates of receptor-blocking VHHs are analyzed on Biacore (Biacore T100 instrument, GE Healthcare). HBS-EP+buffer is used as running buffer and experiments are performed at 25° C. […] After immobilization, surfaces are deactivated with 10 min injection of 1M ethanolamine pH8.5. […] Periplasmic extracts of VHHs are injected at a 10-fold dilution in running buffer for 2 min at 45 μl/min and allowed to dissociate for 10 or 15 min. Between different samples, the surfaces are regenerated with regeneration buffer. Data are double referenced by subtraction of the curves on the reference channel and of a blank running buffer injection. The dissociation phase of the processed curves is evaluated by fitting a two phase decay model in the Biacore T100 Evaluation software v2.0.1.

VEGFD = molecular target: T6, VEGFD (UniProt O43915 93-201, limits assumed); assay: solid phase binding ELISA, 500 nM-32 pM VHH
T6 sequence (looked up): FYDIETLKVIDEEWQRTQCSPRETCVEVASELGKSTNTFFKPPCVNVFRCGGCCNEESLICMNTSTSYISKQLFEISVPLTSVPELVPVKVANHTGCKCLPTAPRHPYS
Method: (§3) Binding to VEGFB, VEGFC, VEGFD and PIGF is assessed via a solid phase binding ELISA. […] Wells are blocked with a casein solution (1% in PBS). […] As positive controls serial dilutions of the appropriate receptors are taken along and detected with horseradish peroxidase (HRP)-conjugated goat anti-human IgG, Fc specific antibody (Jackson Immuno Research Laboratories Inc., West Grove, Pa., USA) and a subsequent enzymatic reaction in the presence of the substrate TMB (3,3′,5,5′-tetramentylbenzidine) (Pierce, Rockford, Ill., USA).

VEGFB = molecular target: T7, VEGFB (UniProt P49765-2 22-188, limits assumed); assay: solid phase binding ELISA, 500 nM-32 pM VHH
T7 sequence (looked up): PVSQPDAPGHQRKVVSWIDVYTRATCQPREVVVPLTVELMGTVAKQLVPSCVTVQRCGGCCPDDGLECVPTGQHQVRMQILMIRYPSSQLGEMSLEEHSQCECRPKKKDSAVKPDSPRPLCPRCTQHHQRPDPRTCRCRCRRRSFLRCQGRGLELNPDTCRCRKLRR
Method: as §3

PIGF = molecular target: T8, PIGF (UniProt P49763-2 21-149, limits assumed); assay: solid phase binding ELISA, 500 nM-32 pM VHH
T8 construct: also called placenta growth factor
T8 sequence (looked up): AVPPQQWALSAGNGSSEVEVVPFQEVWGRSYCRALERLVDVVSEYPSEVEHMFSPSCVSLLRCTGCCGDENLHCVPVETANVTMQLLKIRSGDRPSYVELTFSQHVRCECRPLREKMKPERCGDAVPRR
Method: as §3

VEGFC = molecular target: T9, VEGFC (UniProt P49767 103-227, limits assumed); assay: solid phase binding ELISA, 500 nM-32 pM VHH
T9 sequence (looked up): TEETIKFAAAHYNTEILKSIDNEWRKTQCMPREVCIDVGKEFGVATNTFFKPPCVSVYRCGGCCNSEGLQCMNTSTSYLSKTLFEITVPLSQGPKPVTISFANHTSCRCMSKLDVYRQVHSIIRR
Method: as §3

T1 sequence (Q9NR61 25-522): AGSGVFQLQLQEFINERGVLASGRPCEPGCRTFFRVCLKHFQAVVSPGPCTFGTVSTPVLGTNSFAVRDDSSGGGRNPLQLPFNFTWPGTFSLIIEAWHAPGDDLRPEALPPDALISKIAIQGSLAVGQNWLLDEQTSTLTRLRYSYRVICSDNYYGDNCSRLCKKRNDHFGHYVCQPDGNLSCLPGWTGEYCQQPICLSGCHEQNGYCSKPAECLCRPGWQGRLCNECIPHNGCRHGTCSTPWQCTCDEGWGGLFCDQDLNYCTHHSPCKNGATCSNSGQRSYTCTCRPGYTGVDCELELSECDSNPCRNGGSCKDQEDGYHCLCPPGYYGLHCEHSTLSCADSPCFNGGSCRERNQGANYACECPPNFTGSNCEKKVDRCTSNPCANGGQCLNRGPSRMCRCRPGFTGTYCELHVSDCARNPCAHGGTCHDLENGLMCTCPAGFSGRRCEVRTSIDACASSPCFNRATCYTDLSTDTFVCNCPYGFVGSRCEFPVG

B1: DLLBII17F10 (VHH)
VHH: EVQLVESGGGLVQAGGSLRLSCASSGRTLLNYAMGWFRQAPGKEREFVSGINWSGGSTYYADSVKGRFTISRDNAENTVYLHMNSLKPEDTAVYYCAAAHDNYWFTDDSLGRGLKYWGQGTQVTVSS
% inh (recombinant human DLL4 [1]): 98% | koff (recombinant human DLL4 [2]): 0.0011 s⁻¹ | koff (recombinant human DLL4 [3]): 0.00031 s⁻¹ | EC50 (recombinant human DLL4 [4]): 900 pM | % inh (recombinant human DLL4 [5]): 88%

B2: VEGFBII5B05 (VHH)
VHH: EVQLVESGGGLVQPGGSLRLSCVASGIRFMSMAWYRQAPGKHRELVARISSGGTTAYVDSVKGRFTISRDNSKNTVYLQMNSLKAEDTAVYYCNTFSSRPNPWGAGTQVTVSS
notes: also called VEGFBII05B05; VEGFBII5B05(wt)
binding level (RU) [6]: 242 RU | koff [6]: 0.0615 s⁻¹ | Kd [7]: 32000 pM

B4: VEGFBII23A06 (VHH, not shown: small tags and cut ends)
VHH: EVQLVESGGGLVQPGDSLKLSCAFSGRTFSSYSMGWFRQAQGKEREFVVAISSGGFIYDAVSLEGRFTISRDNTKNTVYLQTPSLKPEDTAVYYCAASRAYGSSRLRLADTYDYWGQGTQVTVSS
IC50 [8]: 900 pM | Kd [9]: 700 pM | IC50 [10]: 250 pM | EC50 [11]: 928 pM | IC50 [12]: 400 pM | EC50 [13]: 531 pM | binding result [14]: no binding (tested: dilution series 500 nM-32 pM) | IC50 [15]: 3000 pM | kd (fast) [16]: 0.017 | kd (slow) [16]: 3.7e-05

B6: VEGFBII23B04 (VHH, not shown: small tags and cut ends)
VHH: EVQLVESGGGLVQTGDSLRLSCEVSGRTFSSYSMGWFRQAQGKEREFVVAISKGGYKYDSVSLEGRFTISKDNAKNTVYLQINSLKPEDTAVYYCASSRAYGSSRLRLADTYEYWGQGTQVTVSS
notes: also called VEGFBII23B4
IC50 [8]: 500 pM | Kd [9]: 700 pM | IC50 [10]: 160 pM | EC50 [11]: 510 pM | IC50 [12]: 900 pM | EC50 [13]: 297 pM | binding result [14]: no binding (tested: dilution series 500 nM-32 pM) | IC50 [15]: 2100 pM | kd (fast) [16]: 0.0088 | kd (slow) [16]: 4e-05

B8: DLLBII17B03 (VHH)
VHH: EVQLVESGGGLVQPGGSLRLSCAASGFTFENYALGWFRQAPGKEREWVSCISSSDGTTYYADSVKGRFTISRDNVKNTVYLQMNRLKPEDTAIYYCALSLGSSWCAYDYWGQGTQVTVSS
% inh (recombinant human DLL4 [1]): 76% | koff (recombinant human DLL4 [2]): 0.0012 s⁻¹ | koff (recombinant human DLL4 [3]): 0.00022 s⁻¹ | % inh (recombinant human DLL4 [5]): 77%

Second part, the binder after the results:

Kd [7]: 44000 pM
B3: VEGFBII032 (VHH)
VHH: EVQLVESGGGLVQPGGSLRLSCAASGIRFISMAWYRQAPGKQRELVARISSGGTTAYADSVKGRFTISRDNSKNTVYLQMNSLRAEDTAVYYCNTFSSRPNPWGQGTLVTVSS
notes: also called VEGFBII0032

binding result (VEGFD): no binding (tested: 500 nM) | binding result (VEGFB): no binding (tested: 500 nM) | binding result (PIGF): no binding (tested: 500 nM) | binding result (VEGFC): no binding (tested: 500 nM)
B5: VEGFBII23A06 (VHH)
VHH: EVQLVESGGGLVQPGDSLKLSCAFSGRTFSSYSMGWFRQAQGKEREFVVAISSGGFIYDAVSLEGRFTISRDNTKNTVYLQTPSLKPEDTAVYYCAASRAYGSSRLRLADTYDYWGQGTQVTVSS

binding result (VEGFD): no binding (tested: 500 nM) | binding result (VEGFB): no binding (tested: 500 nM) | binding result (PIGF): no binding (tested: 500 nM) | binding result (VEGFC): no binding (tested: 500 nM)
B7: VEGFBII23B04 (VHH)
VHH: EVQLVESGGGLVQTGDSLRLSCEVSGRTFSSYSMGWFRQAQGKEREFVVAISKGGYKYDSVSLEGRFTISKDNAKNTVYLQINSLKPEDTAVYYCASSRAYGSSRLRLADTYEYWGQGTQVTVSS
notes: also called VEGFBII23B4
